B1: Leu5CUA amber suppressor tRNA (ssRNA)
RNA: GCCCGGAUGGUGGAAUCGGUAGACACAAGGGAUUCUAAAUCCCUCGGCGUUCGCGCUGUGCGGGUUCAAGUCCCGCUCCGGGUACCA

Tests used:
[1] = system: CAP (catabolite activator protein) wild-type (Escherichia coli); assay: EMSA; settings: 20 uM cAMP, 10 mM Tris pH 7.5, 50 mM NaCl, 1 mM MgCl2, 25 C; approximate value
[2] = system: CAP70TAG azobenzyl-Phe mutant, irradiated at 334 nm (about 50% cis) I70(azobenzyl-Phe) (Escherichia coli); assay: EMSA; settings: 20 uM cAMP, 25 C; after 334 nm irradiation 40 min at 0 C, photostationary state about 50% cis
[3] = system: CAP70TAG azobenzyl-Phe mutant, trans (before irradiation) I70(azobenzyl-Phe) (Escherichia coli); assay: EMSA; settings: 20 uM cAMP, 25 C; approximate value; 4-fold lower than wt; same value recovered after switching back with light >=420 nm
[4] = target: E. coli leucyl-tRNA synthetase (ecLRS) wild-type (Escherichia coli, UniProt P07813 SEQ:1-860); assay: cell_activity; amber suppression of GAL4 (2 TAG) in S. cerevisiae, beta-galactosidase; printed as 104-fold increase (10^4) over either component alone
Chain of E. coli leucyl-tRNA synthetase (ecLRS) wild-type (P07813 whole entry, the tested form may be a part): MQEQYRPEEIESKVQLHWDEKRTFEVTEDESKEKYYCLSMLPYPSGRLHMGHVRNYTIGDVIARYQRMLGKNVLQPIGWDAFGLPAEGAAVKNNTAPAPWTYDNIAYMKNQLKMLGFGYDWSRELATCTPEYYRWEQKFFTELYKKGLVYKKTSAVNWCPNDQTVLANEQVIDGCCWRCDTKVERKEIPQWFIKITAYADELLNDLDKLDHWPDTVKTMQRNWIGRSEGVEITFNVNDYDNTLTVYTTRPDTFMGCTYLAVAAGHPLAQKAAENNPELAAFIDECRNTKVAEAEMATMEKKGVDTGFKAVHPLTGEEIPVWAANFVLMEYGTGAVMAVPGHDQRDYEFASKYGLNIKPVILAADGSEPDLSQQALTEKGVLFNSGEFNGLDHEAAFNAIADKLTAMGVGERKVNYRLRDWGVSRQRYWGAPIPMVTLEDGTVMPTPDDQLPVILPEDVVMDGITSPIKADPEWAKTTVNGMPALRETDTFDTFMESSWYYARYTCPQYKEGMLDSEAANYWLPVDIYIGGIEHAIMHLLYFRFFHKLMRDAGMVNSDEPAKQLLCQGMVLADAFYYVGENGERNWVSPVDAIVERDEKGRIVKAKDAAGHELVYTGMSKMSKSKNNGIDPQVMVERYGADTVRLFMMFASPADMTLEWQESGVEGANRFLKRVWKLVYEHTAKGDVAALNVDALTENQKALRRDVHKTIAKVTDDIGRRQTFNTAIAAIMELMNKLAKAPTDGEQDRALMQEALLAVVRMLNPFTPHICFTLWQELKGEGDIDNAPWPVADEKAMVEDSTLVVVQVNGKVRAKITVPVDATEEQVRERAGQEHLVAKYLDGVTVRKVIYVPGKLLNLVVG
Text: The orthogonality of the E. coli leucyl suppressor tRNACUA (Leu5CUA) (FIG. 1A), which has U35 and A37 in the anticodon loop, and the corresponding ecLRS was examined in vivo in a selection strain of S. cerevisiae [MaV203:pGADGAL4(2 TAG)]. See Chin, et al., Science, 2003, 301:964-7. This strain harbors the transcriptional activator GAL4 with amber codons at two permissive sites (Thr44 and Arg110). Efficient suppression at both sites leads to expression of three reporter genes: lacZ, his3, and ura3. In the presence of either Leu5CUA or ecLRS alone, no significant β-galactosidase activity was detected above the residual activity in lysates from […] cells. […] See ibid.

Row | Molecule | Ka [1] | Ka [2] | Ka [3] | activity [4]
1 | 118 bp lac promoter fragment with primary CAP site | 1.6e+07 M⁻¹ | 1e+06 M⁻¹ | 4e+06 M⁻¹ | –
2 | B1 | – | – | – | > 10000 fold
